Results reported in patent US20250122242A1, “SELECTION SYSTEMS, PEPTIDES DETERMINED THEREWITH, AND METHODS OF USING SAME” (Wisconsin Alumni Research Foundation, priority 2023, published 2025).

How the values were obtained:
[1] = biological target: Aβ42-T7n (UniProt P00573+P05067); details: clonal SP encoding the sequence
Excerpt: Therefore, we turned to a split-T7 RNA polymerase (T7 RNAP) reporter used to evolve proteins with improved soluble expression.^33 In our new selection, host E. coli express an aggregation-prone protein (APP) fused to the N-terminal half of split-T7 RNAP (T7n). When the APP-T7n fusion is translated, it misfolds due to the APP, preventing T7n from associating with the C-terminal half of split-T7 RNAP (T7c; FIG. 2A). If a SP-encoded inhibitor binds to and prevents APP aggregation, the fused T7n will remain folded and join with T7c to produce full-length T7 RNAP. The reconstituted T7 RNAP then transcribes gIII, which we place under control of the T7 promoter (PT7), producing pill and allowing the SP to reproduce (FIGS. 2A and 2B).
We used the SICLOPPS method to biosynthesize cyclic peptides that can be selected in E. coli.^15 In SICLOPPS, a precursor fusion consisting of the C-terminal half of the Ssp DnaE split intein, the peptide sequence to be cyclized, and the N-terminal half of the same split intein undergoes intein splicing after translation to produce head-to-tail cyclized peptides (FIG. 7).
Strain S206035 was used for plasmid cloning, amplification, and phage assays. Strain S220835 was used for SP cloning and plaque assays. Plasmids and SPs were cloned by USER assembly or blunt-end ligation. Competent cells were prepared and transformed using the TSS method. Phage propagation and plaque assays were performed as previously described.^54 Unless otherwise noted, phage propagation assays used an input of […] phage to infect a 2 mL culture of host cells.

[2] = test system: Aβ42-GFP; assay: Aβ42-GFP folding reporter fluorescence assay; format: cell-based, E. coli; details: expressed from plasmid, 0.04 mM IPTG, compared with CKVWQLL (FIG. 3H)
Chain of Aβ42-GFP (P05067 672-713): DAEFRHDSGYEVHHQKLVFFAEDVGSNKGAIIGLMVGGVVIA
Description: (§1) Single colonies of S2060s transformed with pBL066c and SICLOPPS plasmid were used to make overnight cultures in 2×YT with maintenance antibiotics. The overnight culture was diluted (1:100) into 1 mL DRM on a 96 deep-well plate (VWR, 75870-796) with maintenance antibiotics and IPTG (0, 0.04, 0.2, or 1 mM). The diluted culture was incubated at 37° C. with shaking for 2.5 h, after which aTc (200 ng/mL) was added. 100 μL of the culture was transferred onto a black clear-bottom 96-well plate (VWR, 89131-680) to measure fluorescence signal 2, 3, 5 h after addition of aTc. GFP fluorescence signal (excitation wavelength=485 nm, emission wavelength=535 nm) was then measured using a Tecan M Plex microplate reader.

[3] = test system: E. coli; assay: Growth (OD600) of cells expressing SICLOPPS precursors upon IPTG induction; details: OD600, IPTG induction (FIG. 9B)
Description: Data reflects 3 biological replicates plotted as individual values.
as §1

Chain of Aβ42-T7n (P05067+P00573 fused): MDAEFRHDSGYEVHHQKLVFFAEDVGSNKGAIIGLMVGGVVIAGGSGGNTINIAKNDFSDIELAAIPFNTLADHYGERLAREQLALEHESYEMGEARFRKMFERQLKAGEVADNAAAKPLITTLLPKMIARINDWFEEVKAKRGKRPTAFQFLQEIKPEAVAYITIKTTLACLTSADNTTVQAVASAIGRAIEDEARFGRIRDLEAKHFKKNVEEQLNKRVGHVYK

CRVYQVL (cyclic; Circular) [cyclo-CRVYQVL]
phage propagation activity (fitness) on Aβ42-T7n selection [1]: more modest fitness | activity in Aβ42-GFP folding reporter assay [2]: appeared inactive | effect of construct induction on cell growth [3]: greatly decreased cell growth
